Results published in the DeepSol protein solubility set.

assay: soluble on expression in E. coli; label from the status in PepcDB or PDB records

Soluble on expression in E. coli, not soluble:
MASQADAQELAALRALSASIGLNPHMTQAAGGNTSLKAGDTLWIKASGTWLKDALSDDIMVPVAMAPLLEAVEEGDPAADKPQAFAINELNPRGLRPSIETTVHALMPQRVVLHVHCVDTISLAVQADGEAEVARRLGGIEWAYVPYCRPGLPLARGISEKLRPNVDVLILGNHGLVVAADTVAEAQRLLHRVRSLLARPARATAAPDIAALTALAADSAYRLPADLEAHAVALDPQSRRMAEAGSLYPDHVIFLGQGSVVAKPGENAAGVATRLGAAPVAILFPGAGVLVRGDASAGADAMQRCLADVTARVDVAARLNYLTAAENDELVNWDAEQYRQKLNATGGLEHHHHHH
MGSDKIHHHHHHMRKILLPYPAGCATGTFVRRVKRFSVEMTRDGESVWVHSNNSGSMLGLLRPGATMLASPAANPDRKLAWTHEAMRCHGDGPQGFWVGVNTSVPNRMVEAAFHAGRLPWAQGYDTFRRERKRGDSRLDARLDGPGLPTLWVECKNVTMVEDDVACFPDAVTERGSKHLREMMDIVSRGERAAMFYLVQRPDGLCFGPADVIDPQYAALFWEAVDAGVEMYPHRGIVSPVGIDLSGVLPLTRCR
MGSDKIHHHHHHMSTIIQNTLAPKVQNQLIHHLPALEQAELLSQAKLVQLNFADLLCQPGESYQYVYFPLTAFISLIAKLPKHPALEMGLIGYEGMLGATTLLSTRQVPSEAIIQGSGKAWRIPIATFEDLLAQSSSLRQILETYLYQLLCQLSQNAVCAHFHSVESRLARWLLMSHDRIQTNELFLTHQFLSDMLGVRRSSITEAAGELQASGCISYNRGRLYILDRQGLLARCCSCYHLMRT
MAHHHHHHMQSSISQEKLQLMQKNFNLVDLNKDGKIAAEEFKTLLRLLGQTKTEKEMDEMVDKHFEDAPIGEEQQQDAAEAADKGGANEGTPSTAKQLGGQKNTAKTAPNHDRIKNLIAKLNNSKDEDKKKNSPNGQINRTGDVYAKNELINKKKKHINFETFLRIFLETYEEPLSVDELITSFEFFDKEKSGYLDEEKVRFILKNSEERLADEDMKLFLNSLNLRDKDKIDYVMLAKRLKNVA
MGSDKIHHHHHHMLPFLRSELARCQPYHPNPGGTGMAMDILDTNECPYDLPTDLKQTLADRYVEAIASNRYPDGSHTDLKAAIVDYLSEQTAGQWQPGPEHVTVGNGSDELIRSILIATCLGGQGSVLVAEPTFSMYGIVAETLGIPVVRIGRDPQTWEMDLAAAETAITQTEGTPVRLCFVVHPNSPTANPLTEAEKDWLRQVPPQILVVIDEAYFEFSGETLLAELPQHPNWLITRTFSKALRLAAHRVGYGIGDPQLIAALEAIRLPYNLPSVAQLAATLALEARSQLLSAIPRLITERDRLYRKLQVVSQLQVWPSASNFLFLKTQSSSQTAALAAQLKAQGTLVRHTADGLRITIGSPAENERTLAHLQTAITQSLPATV
MISVFDIFKIGIGPSSSHTVGPMKAGKQFTDDLIARHILTDVTRVVVDVYGSLSLTGKGHHTDIAIIMGLAGNLPDTVDIDAIPSFIQDVNTHGRLLLANGQHEVEFPVDKCMNFHADNLSLHENGMRITALAGDKVLYSQTYYSIGGGFIVDEEHFGLTNSEPVNVPYPYKTAADLQRHCQETGLSLSGLMMQNELALHSKEALEQHFARVWEVMRSGIERGITTEGVLPGKLRVPRRAAALRRMLVSQDKTTTDPMAVVDWINMFALAVNEENAAGGRVVTAPTNGACGIVPAVLAYYDKFIREVNANSLARYMLVASAIGSLYKMNASISGAEVGCQGEVGVACSMAAAGLAELLGGSPAQVCIAAEIAMEHNLGLTCDPVAGQVQVPCIERNAIASVKAVNAARMAVRRTSEPRVCLDKVIETMYETGKDMNAKYRETSRGGLAMKIVTCD

Soluble on expression in E. coli, soluble:
LLYIDNIPLVEYNNIIQVEYVVINMLKHGILGLLNYGDMTGYEIMKVFRDSLSFFWTANTSQIYRELNTLKKDGFVTDIVVKQTGKPDKKVFSITESGREELKRWLREYDYGNRNSPLCMKVFFSGELPKEENIERLREIKNEAQQAIERYSSVFETMKIYKGMVARPEDSVYWNMTVEYGIRYMKMLSEWCDCCIKILEDVEK
HSGEDLPMVAPGNVRVNVVNSTLAEVHWDPVPLKSIRGHLQGYRIYYWKTQSSSKRNRRHIEKKILTFQGSKTHGMLPGLEPFSHYTLNVRVVNGKGEGPASPDRVFNTPEG
SDLPRHIAVLCDGNRRWARSAGYDDVSYGYRMGAAKIAEMLRWCHEAGIELATVYLLSTENLQRDPDELAALIEIITDVVEEICAPANHWSVRTVGDLGLIGEEPARRLRGAVESTPEVASFHVNVAVGYGGRREIVDAVRALLSKELANGATAEELVDAVTVEGISENLYTSGQPDPDLVIRTSGEQRLSGFLLWQSAYSEMWFTEAHWPAFRHVDFLRALRDYSAR
